Measurements: patent publication US20250136720A1 (Boehringer Ingelheim, published 2025)
Residue numbers refer to the chain shown, from its start. Numbers in names are those of the source. One block for each binder: values may come before it.

Key:
[1] = biological target: T1, Human CD137 on Jurkat cells (human, UniProt Q07011 24-255); experiment: flow cytometry, Jurkat cells;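 also: binding of antibody-containing supernatants to NF-kB-Luc2/4-1BB Jurkat cells, detected by flow cytometry with a PE-labelled anti-human IgG-Fc secondary antibody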
T1 construct: whole, on cells; also called full-length human CD137-expressing Jurkat cell line; NF-kB-Luc2/4-1BB Jurkat
Procedure: Briefly, HTP supernatants containing recombinant IgG1 (KO) antibodies, were assayed by flow cytometry for binding to the NF-kB-Luc2/4-1BB Jurkat cell line. […] The cells were washed x3 with staining buffer. A Goat F(ab′)2 anti-human IgG-Fc PE secondary antibody was added to the cells and the plate was incubated for 30 min at 4° C. The cells were wash ×3 with staining buffer.

[2] = biological target: T1, Human CD137 on Jurkat cells; experiment: cell-based or functional assay
[3] = biological target: T1, Human CD137 on Jurkat cells; experiment: cell-based or functional assay; set-up: IC90; Jurkat-CD137 NFkB-luciferase, HT1080-FAP co-culture / EC90; Jurkat-CD137 NFkB-luciferase, HT1080-FAP co-culture: unit not given beside the values

binding result [1]: binds
B1: CD137 #A1 (antibody, human IgG1, V domains shown)
VH: QVQLVQSGAEVKKPGASVKVSCKASGYTLTNYPMHWVRQAPGQRPEWMGWSNAGNGNTKYSQEFQDRVTITRDTSASTAYMELSSLRSEDMAVYYCTREGVTGGFDIWGQGTMVTVSS
VL: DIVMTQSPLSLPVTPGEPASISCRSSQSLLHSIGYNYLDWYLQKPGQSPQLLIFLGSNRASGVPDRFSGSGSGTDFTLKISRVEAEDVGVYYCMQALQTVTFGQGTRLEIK
notes: human IgG1 KO (L234A/L235A)/kappa chimeric IgG

binding result [1]: binds
B2: CD137 #A44 (antibody, V domains shown)
VH: B1 VH with L29F, M34I, P45L, Q62P, A79V, A92S, T97A, G104A
VL: not shown
notes: as for B1

binding result [1]: binds
B3: CD137 #A12 (antibody, human IgG1, V domains shown)
VH: QVQLKQSGPGLVQPSQSLSITCTVSGFSLTSHGVHWVRQSPGKGLEWLGVIWSGGYTDYNAAFISRLSISTDNSKSHIFFKMNSLQADDTAIYYCARNGASYYYAMDYWGQGTSVTVSS
VL: DIVMTQAAFSNPVTLGISASISCRSSKSLLHSNGITYLYWYLQKPGQSPQLLIYQMSNLASGVPDRFSSSGSGTDFTLRISRVEAEDVGVYYCAQNLELPLTFGAGTKLELK
notes: human IgG1 KO (L234A/L235A)/kappa chimeric IgG; also called CD137 #Al2

binding result [1]: binds
B4: CD137 #A4 (antibody, human IgG1, V domains shown)
VH: DVQLQESGPGLVKPSQSLSLTCTVTGYSITSDYVWNWIRQFPGNKLEWMGYISYSGGTRYNPSLKSRISITRDTSENQFFLQLDSVTTEDTATFYCARSGNWDWYFDAWGTGTTVTVSS
VL: DIQMTQTTSSLSASLGDRVTISCRPSQDISNYLDWYQQKPDGTVKLLIYSTSRLPSGVPSRFSGSGSGTDYSLTISNMEQEDIATYFCQQGNTFPPTFGGGTKLEIK
notes: as for B1

binding result [1]: binds
B5: CD137 #A2 (antibody, human IgG1, V domains shown)
VH: QVQLVQSGADVKKPGASVRVSCKASGYTFTSYPIHWVRQAPGHRLEWMGWSNAGIGNAKYSQEFQGRVTITRDTSASTAYMDLSSLTSEDLAVYYCAREGVAGAFDIWGQGTMVTVSA
VL: DIVMTQSPLSLPVTPGEPASISCRSSQNLLHSNGYNYLDWYLHKPGQSPQLLIYLGSIRASGVPDRFSGSESGTDFTLKISRVEAEDVGIYYCMQPLQIPYTFGQGTKLELK
notes: as for B1

binding result [1]: binds
B6: CD137 #A41 (antibody, human IgG1, V domains shown)
VH: QVQLQESGPGLVKPSETLSLNCTVSGGSISNYYWSWIRQPAGKGLEWIGRIYTSGNTNYNPSLKSRVTMSVDTSKNQFSLKLTSVTAADTAVYYCARDGNWNYADAFDIWGQGTMVTVSS
VL: DIQMTQSPSSVSASVGDRVTITCRASQGISSWLAWFQQIPGKAPKLLIYTASGLQSGVPSRFSGSGSGTDFTLTISSLQPEDFATYYCQQTNSFPFTFGPGTKVDIK
notes: as for B1

Average EC50; Jurkat-CD137 NFkB-luciferase, HT1080-FAP co-culture [2]: 0.141 nM
Average EC90; Jurkat-CD137 NFkB-luciferase, HT1080-FAP co-culture [2]: 1.43 nM
Average IC50; Jurkat-CD137 NFkB-luciferase, HT1080-FAP co-culture [2]: 756 nM
Average IC90; Jurkat-CD137 NFkB-luciferase, HT1080-FAP co-culture [2]: 165 nM
Ratio IC50/EC50; Jurkat-CD137 NFkB-luciferase, HT1080-FAP co-culture [2]: 5370
Ratio IC90/EC90; Jurkat-CD137 NFkB-luciferase, HT1080-FAP co-culture [2]: 115
EC90; Jurkat-CD137 NFkB-luciferase, HT1080-FAP co-culture [3]: 2.34
IC90; Jurkat-CD137 NFkB-luciferase, HT1080-FAP co-culture [3]: 258
Total AUC; Jurkat-CD137 NFkB-luciferase, HT1080-FAP co-culture [3]: 3.5e+06
B7: CD137 #6 (B21.V37) + FAP #3 (A11 VK7/VH1) (bispecific antibody, human IgG1, kappa, L234A L235A)
heavy: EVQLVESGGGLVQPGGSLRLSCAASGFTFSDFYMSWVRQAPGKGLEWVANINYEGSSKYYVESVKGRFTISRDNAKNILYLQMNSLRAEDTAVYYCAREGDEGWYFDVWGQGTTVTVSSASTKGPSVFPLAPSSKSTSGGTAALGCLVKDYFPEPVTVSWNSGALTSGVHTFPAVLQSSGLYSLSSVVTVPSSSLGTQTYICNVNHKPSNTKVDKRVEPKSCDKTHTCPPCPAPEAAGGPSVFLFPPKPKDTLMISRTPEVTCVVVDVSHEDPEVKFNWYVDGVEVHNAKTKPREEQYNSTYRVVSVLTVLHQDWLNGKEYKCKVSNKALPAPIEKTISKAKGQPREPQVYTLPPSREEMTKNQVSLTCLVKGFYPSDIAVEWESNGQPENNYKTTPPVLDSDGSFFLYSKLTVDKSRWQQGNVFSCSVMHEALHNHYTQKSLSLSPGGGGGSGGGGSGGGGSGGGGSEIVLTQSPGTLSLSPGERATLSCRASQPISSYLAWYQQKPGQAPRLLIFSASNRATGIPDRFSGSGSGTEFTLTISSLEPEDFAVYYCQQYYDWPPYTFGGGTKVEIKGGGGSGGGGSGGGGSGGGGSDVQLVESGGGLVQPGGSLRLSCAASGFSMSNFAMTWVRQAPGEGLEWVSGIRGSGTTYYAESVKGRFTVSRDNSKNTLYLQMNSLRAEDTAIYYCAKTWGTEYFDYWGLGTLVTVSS
light: DIQMTQSPSSLSASVGDRVTITCRASQSISTALAWYQQKPGKAPKLLIYAASYRYSGVPSRFSGSGSGTDFTLTISSLQPEDFAVYYCQQHYSNPWTFGQGTKLEIKRTVAAPSVFIFPPSDEQLKSGTASVVCLLNNFYPREAKVQWKVDNALQSGNSQESVTEQDSKDSTYSLSSTLTLSKADYEKHKVYACEVTHQGLSSPVTKSFNRGEC

Average EC50; Jurkat-CD137 NFkB-luciferase, HT1080-FAP co-culture [2]: 0.153 nM
Average EC90; Jurkat-CD137 NFkB-luciferase, HT1080-FAP co-culture [2]: 1.07 nM
Average IC50; Jurkat-CD137 NFkB-luciferase, HT1080-FAP co-culture [2]: 314 nM
Average IC90; Jurkat-CD137 NFkB-luciferase, HT1080-FAP co-culture [2]: 105 nM
Ratio IC50/EC50; Jurkat-CD137 NFkB-luciferase, HT1080-FAP co-culture [2]: 2060
Ratio IC90/EC90; Jurkat-CD137 NFkB-luciferase, HT1080-FAP co-culture [2]: 98.1
EC90; Jurkat-CD137 NFkB-luciferase, HT1080-FAP co-culture [3]: 0.55
IC90; Jurkat-CD137 NFkB-luciferase, HT1080-FAP co-culture [3]: 53.6
Total AUC; Jurkat-CD137 NFkB-luciferase, HT1080-FAP co-culture [3]: 4e+06
B8: CD137 #6 (B21.V37) + FAP #2 (A11 VK3/VH3) (bispecific antibody, human IgG1, kappa, L234A L235A)
heavy: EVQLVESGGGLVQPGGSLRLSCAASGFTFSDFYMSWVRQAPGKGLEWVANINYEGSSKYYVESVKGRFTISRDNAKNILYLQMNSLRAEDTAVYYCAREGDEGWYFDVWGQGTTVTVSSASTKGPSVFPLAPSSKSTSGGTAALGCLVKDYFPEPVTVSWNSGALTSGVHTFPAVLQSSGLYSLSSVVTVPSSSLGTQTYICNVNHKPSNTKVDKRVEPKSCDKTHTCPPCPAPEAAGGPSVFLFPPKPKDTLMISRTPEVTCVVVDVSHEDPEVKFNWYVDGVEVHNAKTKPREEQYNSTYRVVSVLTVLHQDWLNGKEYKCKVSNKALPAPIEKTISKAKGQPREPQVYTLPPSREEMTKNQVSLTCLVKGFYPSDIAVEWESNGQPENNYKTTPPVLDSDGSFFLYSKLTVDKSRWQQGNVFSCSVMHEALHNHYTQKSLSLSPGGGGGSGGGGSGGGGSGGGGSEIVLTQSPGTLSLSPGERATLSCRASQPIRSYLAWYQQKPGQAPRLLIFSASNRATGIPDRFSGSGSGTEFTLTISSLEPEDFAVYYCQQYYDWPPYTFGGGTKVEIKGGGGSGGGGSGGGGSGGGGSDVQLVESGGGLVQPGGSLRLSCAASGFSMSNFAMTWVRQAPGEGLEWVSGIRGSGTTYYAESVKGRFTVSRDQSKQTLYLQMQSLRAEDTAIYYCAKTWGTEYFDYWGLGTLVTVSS
light: B7 light
